Results from publication PMC4844956.

How the values were obtained:
[1] = molecular target: HEV ORF3 protein fused to the GAL4 binding domain; assay: yeast two-hybrid quantitative α-galactosidase assay; settings: triplicate samples, parent: est. 11, read off a plot
[2] = molecular target: HEV methyltransferase fused to the GAL4 binding domain (UniProt P33424); assay: as above; settings: triplicate samples, parent: est. 8.7, read off a plot
[3] = molecular target: GST fused X-domain (Hepatitis E virus) (UniProt P33424); assay: pull-down; competition: ORF3-His and Met-His together with 500 fmol GST-X, equimolar (~500 fmol) or with 1 and 2 pmol of one of them
[4] = molecular target: GST fused X-domain (Hepatitis E virus) (UniProt P33424); assay: pull-down; ~500 fmol ORF3-His or ~500 fmol Met-His alone with 500 fmol GST-X; bound fraction against input by band intensity

Q: For “HEV X-domain (macro domain) fused to the GAL4 activation domain (from UniProt P33424) I66E; I67E”, which response (normalized α-gal units) ([1]; P=0.002 vs wild type X) is on record?
A: 6.2

Q: Which response (normalized α-gal units) ([1]; P=0.056 vs wild type X) does the source give for “HEV X-domain (macro domain) fused to the GAL4 activation domain (from UniProt P33424) L94R” here?
A: 13

Q: What about the response (normalized α-gal units) ([2]; P=0.82 vs wild type X) of the same substance?
A: 8.3

Q: With “HEV X-domain (macro domain) fused to the GAL4 activation domain (from UniProt P33424) L101E; L102E” as the substance, how does the response (normalized α-gal units) [1] read?
A: 3.2

Q: What about the response (normalized α-gal units) [2] of the same substance?
A: 1.9

Q: With “HEV X-domain (macro domain) fused to the GAL4 activation domain (from UniProt P33424) R93E” as the substance, how does the response (normalized α-gal units) ([1]; P=0.077 vs wild type X) read?
A: 13

Q: And the response (normalized α-gal units) ([2]; P=0.51 vs wild type X)?
A: 7.6

Q: How did the response (normalized α-gal units) [1] turn out when “HEV X-domain (macro domain) fused to the GAL4 activation domain (from UniProt P33424) R93E; L101E; L102E” was run?
A: 2.9

Q: What about the response (normalized α-gal units) [2] of the same substance?
A: 1.6

Q: Which results are given for “His-tagged ORF3 (pRSET ORF3) (from UniProt O90299 1-114) (natural protein)”?
A: percent of input in the bound fraction with equimolar Met-His present [3]: 10%; percent of input pulled down [4]: 25%
